Inhibition of the TopFlash (TCF-luciferase) reporter, TopFlash/FopFlash ratio, HEK293 cells with Wnt-conditioned media, 50 ng Nef plasmid data for one substance are collected here from PMC3795062.

This assay has as its target endogenous β-catenin of HEK293 cells (human (endogenous in HEK293)) (UniProt P35222).
UniProt P35222, sequence (P35222 whole entry): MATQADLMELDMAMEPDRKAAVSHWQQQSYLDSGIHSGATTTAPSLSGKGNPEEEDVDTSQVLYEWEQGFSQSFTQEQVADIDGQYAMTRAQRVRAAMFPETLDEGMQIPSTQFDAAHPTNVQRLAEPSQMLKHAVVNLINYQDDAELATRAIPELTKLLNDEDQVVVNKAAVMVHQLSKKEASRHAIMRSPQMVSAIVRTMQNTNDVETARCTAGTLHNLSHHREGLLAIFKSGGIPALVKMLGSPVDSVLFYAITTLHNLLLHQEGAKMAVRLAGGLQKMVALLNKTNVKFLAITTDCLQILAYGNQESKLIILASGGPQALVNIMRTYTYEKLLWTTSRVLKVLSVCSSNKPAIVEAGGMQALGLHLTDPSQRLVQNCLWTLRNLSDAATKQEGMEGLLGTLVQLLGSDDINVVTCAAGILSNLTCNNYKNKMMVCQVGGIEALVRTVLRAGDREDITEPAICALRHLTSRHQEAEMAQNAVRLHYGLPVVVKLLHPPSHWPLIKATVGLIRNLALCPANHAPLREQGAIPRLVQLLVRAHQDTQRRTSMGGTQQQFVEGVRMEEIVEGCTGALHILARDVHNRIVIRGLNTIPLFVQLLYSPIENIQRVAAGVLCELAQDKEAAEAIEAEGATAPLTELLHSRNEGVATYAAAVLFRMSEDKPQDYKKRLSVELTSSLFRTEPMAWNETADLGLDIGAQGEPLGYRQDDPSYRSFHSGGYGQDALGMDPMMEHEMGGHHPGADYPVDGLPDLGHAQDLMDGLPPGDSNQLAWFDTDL

Turning to “WT-Nef expressed in HEK293 cells (natural protein)”, the inhibition of the TopFlash (TCF-luciferase) reporter, TopFlash/FopFlash ratio, HEK293 cells with Wnt-conditioned media, 50 ng Nef plasmid was 40%.
